Measured values taken from US20250163186A1 (PHYLAXIS BIOSCIENCE, published 2025).

Molecular target: T1, human IgE (human, UniProt P01854 1-428)
T1 construct: written under the same molecule; also called IgE (Abcam ab65866); soluble IgE
Experiment: ELISA, clone lysate on IgE-coated plate
Text: Each amino acid in CDR1 (SEQ ID NO:3), CDR2 (SEQ ID NO:68), and CDR3 (SEQ ID NO:74) was randomly replaced such that the 20 natural amino acids would likely all have been sampled at every position. The expression vector for the VHH containing the mutagenized CDRs was then transfected into E. coli, and at least 96 clones were randomly chosen for each position mutated in each CDR. This gives likely coverage of all potential mutations at each position since the probability to get any given amino acid at that position is 5%. […] The heat maps represent the relative binding for each clone determined by the range of OD values from the ELISA background to WT CDR binding (FIGS. 16A-16C). Site numbering for each residue tested is indicated by the inset tables in FIGS. 16A-16C.

T1 sequence (P01854 other isoform, or with tags, fused parts or gaps limits assumed, form in doubt): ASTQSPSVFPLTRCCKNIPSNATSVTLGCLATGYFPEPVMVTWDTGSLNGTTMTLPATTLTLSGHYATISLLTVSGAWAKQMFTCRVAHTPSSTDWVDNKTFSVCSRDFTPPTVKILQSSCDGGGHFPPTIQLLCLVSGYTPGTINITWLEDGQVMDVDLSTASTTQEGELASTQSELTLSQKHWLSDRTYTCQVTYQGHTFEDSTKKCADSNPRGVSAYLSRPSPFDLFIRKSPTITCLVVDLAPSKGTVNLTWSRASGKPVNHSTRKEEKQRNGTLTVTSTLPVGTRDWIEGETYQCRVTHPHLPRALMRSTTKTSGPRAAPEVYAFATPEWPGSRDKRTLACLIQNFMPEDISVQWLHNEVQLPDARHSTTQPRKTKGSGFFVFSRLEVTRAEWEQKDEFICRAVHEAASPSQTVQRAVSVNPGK

| Binder | Confirm OD450 Duplicate1 | Confirm OD450 Duplicate2 | R1 Screening OD450 |
| --- | --- | --- | --- |
| 5A10 (VHH, also called hzB10v40 VHH, CDR1 site 5 S to A) VHH: EVQLLESGGGEVQPGGSLRLSCVASGLTFASYNMGWLRQAPGKEREFVGLSGSSSTSTYYAESVKGRFTISRDNAKNTVYLQMTSLRAEDTAVYYCAARRLLSTYWSDRSWDFWGQGTLVTVEP | 0.554 | 0.549 | 0.96 |
| 6A9 (VHH, also called hzB10v40 VHH, CDR1 site 6 S to E) VHH: EVQLLESGGGEVQPGGSLRLSCVASGLTFSEYNMGWLRQAPGKEREFVGLSGSSSTSTYYAESVKGRFTISRDNAKNTVYLQMTSLRAEDTAVYYCAARRLLSTYWSDRSWDFWGQGTLVTVEP | 0.475 | 0.488 | 0.852 |
| 5C3 (VHH, also called hzB10v40 VHH, CDR1 site 5 S to D) VHH: EVQLLESGGGEVQPGGSLRLSCVASGLTFDSYNMGWLRQAPGKEREFVGLSGSSSTSTYYAESVKGRFTISRDNAKNTVYLQMTSLRAEDTAVYYCAARRLLSTYWSDRSWDFWGQGTLVTVEP | 0.546 | 0.556 | 0.897 |
| 5H11 (VHH, also called hzB10v40 VHH, CDR1 site 5 S to R) VHH: EVQLLESGGGEVQPGGSLRLSCVASGLTFRSYNMGWLRQAPGKEREFVGLSGSSSTSTYYAESVKGRFTISRDNAKNTVYLQMTSLRAEDTAVYYCAARRLLSTYWSDRSWDFWGQGTLVTVEP | 0.545 | 0.55 | 0.893 |
| 6C2 (VHH, also called hzB10v40 VHH, CDR1 site 6 S to Q) VHH: EVQLLESGGGEVQPGGSLRLSCVASGLTFSQYNMGWLRQAPGKEREFVGLSGSSSTSTYYAESVKGRFTISRDNAKNTVYLQMTSLRAEDTAVYYCAARRLLSTYWSDRSWDFWGQGTLVTVEP | 0.534 | 0.526 | 0.826 |

Other lines, results leading:

| Confirm OD450 Duplicate1 | Confirm OD450 Duplicate2 | R1 Screening OD450 | Binder |
| --- | --- | --- | --- |
| 0.556 | 0.512 | 0.875 | 6G9 (VHH, also called hzB10v40 VHH, CDR1 site 6 S to A) VHH: EVQLLESGGGEVQPGGSLRLSCVASGLTFSAYNMGWLRQAPGKEREFVGLSGSSSTSTYYAESVKGRFTISRDNAKNTVYLQMTSLRAEDTAVYYCAARRLLSTYWSDRSWDFWGQGTLVTVEP |
| 0.417 | 0.402 | 0.885 | 6F11 (VHH, also called hzB10v40 VHH, CDR1 site 6 S to R) VHH: EVQLLESGGGEVQPGGSLRLSCVASGLTFSRYNMGWLRQAPGKEREFVGLSGSSSTSTYYAESVKGRFTISRDNAKNTVYLQMTSLRAEDTAVYYCAARRLLSTYWSDRSWDFWGQGTLVTVEP |
| 0.52 | 0.559 | 0.922 | 8F11 (VHH, also called hzB10v40 VHH, CDR1 site 8 N to T) VHH: EVQLLESGGGEVQPGGSLRLSCVASGLTFSSYTMGWLRQAPGKEREFVGLSGSSSTSTYYAESVKGRFTISRDNAKNTVYLQMTSLRAEDTAVYYCAARRLLSTYWSDRSWDFWGQGTLVTVEP |
| 0.454 | 0.468 | 0.817 | 6E11 (VHH, also called hzB10v40 VHH, CDR1 site 6 S to T) VHH: EVQLLESGGGEVQPGGSLRLSCVASGLTFSTYNMGWLRQAPGKEREFVGLSGSSSTSTYYAESVKGRFTISRDNAKNTVYLQMTSLRAEDTAVYYCAARRLLSTYWSDRSWDFWGQGTLVTVEP |
| 0.487 | 0.53 | 0.908 | 6H1 (VHH, also called hzB10v40 VHH, CDR1 site 6 S to P) VHH: EVQLLESGGGEVQPGGSLRLSCVASGLTFSPYNMGWLRQAPGKEREFVGLSGSSSTSTYYAESVKGRFTISRDNAKNTVYLQMTSLRAEDTAVYYCAARRLLSTYWSDRSWDFWGQGTLVTVEP |
